{
  "source": "paper PMC11023358",
  "target": "H2A.Z variant containing recombinant nucleosomes (UniProt P0C0S5)",
  "test": "pull-down; nucleosomes (2.5 μg) pre-bound to Dynabeads M-280 streptavidin; CFDP1 protein (10 μm) added; 4 h at 4°C; 20 mM Hepes pH 8.0, 150 mM NaCl, 0.2 mM EDTA, 20% glycerol, 0.1% NP40, 1 mM DTT; wash with 200 mM NaCl; immunoblot, normalized to H4",
  "data": [
    {"substance": "HIS tagged full-length CFDP1 protein (mouse craniofacial development protein 1) (from UniProt O88271 1-295) (natural protein)", "values": [
      {"measurement": "fold binding over H2A canonical nucleosomes (normalized to H4 levels)", "result": 3.3, "unit": "fold"}
    ]}
  ]
}
